Series [1] concerns the target T1, TNF-alpha (tumor necrosis factor alpha) (Homo sapiens, UniProt P01375 P01375:77-233). The experiment in a line: ELONA; affinity and inhibition activity stated unchanged. To be noted: chain copies: 3.
In series [2] the target is T1, TNF-alpha (tumor necrosis factor alpha). The experiment in a line: ELONA; affinity unchanged; still positive at 3 ng/ml. As to conditions: chain copies: 3.

T1 sequence (P01375 77-233, one chain of several): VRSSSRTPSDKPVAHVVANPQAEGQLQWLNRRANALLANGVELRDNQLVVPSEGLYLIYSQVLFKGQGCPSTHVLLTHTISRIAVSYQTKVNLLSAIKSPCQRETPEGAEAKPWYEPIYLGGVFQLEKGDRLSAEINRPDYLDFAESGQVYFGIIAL

As for GCUUAGCAAACGCACCGCACAGGCCCGCGG (ssRNA, 2'-F and 2'-NH2 pyrimidines (printed 2-fluorin and 2-amido)) [truncated modified SEQ 20], in series [1], the binding result was “binds”.

Regarding CCUCAUAGACUACUGUUAAGCCUCGAGG (ssRNA, 2'-NH2 pyrimidines (printed 2-amido)) [truncated amino-modified SEQ 25], in series [2], the binding result is reported as “binds”.

The values are drawn from patent publication US20040254139, “Oligonucleotides antagonist for human tumor necrosis factor alpha (TNF-alpha)” (published 2004).
